Experimental data published in publication PMC8636563.

Legend:
[1] = target: Nse2 ΔLoop1-SIM1 (budding yeast (Saccharomyces cerevisiae)) (UniProt P38632)
[2] = target: Nse2 1-267 (budding yeast (Saccharomyces cerevisiae)) (UniProt P38632)
[3] = target: Δ4C-Nse2 (ΔSIM2) (budding yeast (Saccharomyces cerevisiae)) (UniProt P38632)
[4] = target: Ubc9 A129K/K153R (yeast (Saccharomyces cerevisiae)) (UniProt P50623)

multiple-turnover SUMO conjugation on cNse4 by Nse2 ΔLoop1-SIM1/Arm-Smc5 against WT-Nse2, 30 °C [1] | Kcat/KM of single-turnover SUMO conjugation on cp53 (0.5 to 8 µM) by WT Nse2/Arm-Smc5 with extra non-conjugatable Smt3, 2 °C [2] | Kcat/KM of single-turnover SUMO conjugation on cp53 (0.5 to 8 µM) by Δ4C-Nse2 (ΔSIM2)/Arm-Smc5 with extra non-conjugatable Smt3, 2 °C [3] | Kcat of single-turnover discharge of purified Ubc9 K153R~Smt3 K11C/D68R-Alexa488 thioester on cp53 by Nse2/Arm-Smc5, with against without 1.5-fold excess of non-conjugatable SUMOB, 30 °C [4] | Substance
< 90 % reduction |  |  |  | FL Smt3 (from UniProt Q12306 1-101) (natural protein)
 | 0.025 | 0.007 | 3 fold | ΔN18 Smt3 (from UniProt Q12306 19-101) (domain or fragment)
